The chains are these.
T1: FcγRIIa H (human, UniProt P12318 34-217)
T1 construct: extracellular domain; also called FcgRIIa H type; 2aH; not shown: His tag at the C terminus
T1 sequence (looked up): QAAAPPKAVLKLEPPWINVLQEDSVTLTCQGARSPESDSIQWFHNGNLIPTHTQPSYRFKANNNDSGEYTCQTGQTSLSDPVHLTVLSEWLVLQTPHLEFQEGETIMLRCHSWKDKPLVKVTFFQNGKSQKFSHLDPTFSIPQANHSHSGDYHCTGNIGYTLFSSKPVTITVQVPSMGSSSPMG

B1: GpH7-B3 variant K326_06M/GpL16-k0 (antibody, human IgG1, kappa)
heavy: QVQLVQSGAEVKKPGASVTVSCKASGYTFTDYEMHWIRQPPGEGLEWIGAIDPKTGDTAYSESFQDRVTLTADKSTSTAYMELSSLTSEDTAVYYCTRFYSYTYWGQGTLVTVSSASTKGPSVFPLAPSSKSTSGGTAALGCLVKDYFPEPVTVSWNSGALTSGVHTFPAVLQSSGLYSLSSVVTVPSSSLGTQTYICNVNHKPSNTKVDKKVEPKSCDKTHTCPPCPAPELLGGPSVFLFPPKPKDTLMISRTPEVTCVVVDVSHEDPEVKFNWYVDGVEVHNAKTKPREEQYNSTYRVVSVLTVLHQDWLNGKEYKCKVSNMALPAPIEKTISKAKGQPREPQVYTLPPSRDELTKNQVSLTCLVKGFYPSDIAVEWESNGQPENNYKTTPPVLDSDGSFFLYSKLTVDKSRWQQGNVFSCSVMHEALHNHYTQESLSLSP
light: DIVMTQSPLSLPVTPGEPASISCQASESLVHSNRNTYLHWYLQKPGQSPQLLIYKVSNRFSGVPDRFSGSGSGTDFTLKISRVEAEDVGVYYCSQNTHVPPTFGQGTKVEIERTVAAPSVFIFPPSDEQLKSGTASVVCLLNNFYPREAKVQWKVDNALQSGNSQESVTEQDSKDSTYSLSSTLTLSKADYEKHKVYACEVTHQGLSSPVTKSFNRGEC
notes: also called Ho Ab K326_06M
B2: GpH7-B3 variant S324_06M/GpL16-k0 (antibody, human IgG1, kappa)
heavy: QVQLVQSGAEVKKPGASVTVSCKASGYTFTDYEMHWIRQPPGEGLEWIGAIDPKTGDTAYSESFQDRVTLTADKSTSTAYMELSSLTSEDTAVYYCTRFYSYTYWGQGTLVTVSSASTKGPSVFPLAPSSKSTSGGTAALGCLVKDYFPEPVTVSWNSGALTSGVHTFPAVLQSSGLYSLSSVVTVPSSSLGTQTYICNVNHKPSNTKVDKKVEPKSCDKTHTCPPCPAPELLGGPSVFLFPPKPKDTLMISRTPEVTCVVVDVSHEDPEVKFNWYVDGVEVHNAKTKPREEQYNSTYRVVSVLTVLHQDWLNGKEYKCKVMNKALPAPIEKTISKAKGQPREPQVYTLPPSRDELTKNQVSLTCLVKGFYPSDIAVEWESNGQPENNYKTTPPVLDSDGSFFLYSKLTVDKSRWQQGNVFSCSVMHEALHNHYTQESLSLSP
light: B1 light
notes: also called Ho Ab S324_06M
B3: GpH7-A5/GpH7-B3 variant G236_03V/GpL16-k0 (antibody, human IgG1, kappa)
heavy 1: not shown
heavy 2: not shown
light: B1 light
notes: also called He Ab G236_03V
B4: GpH7-B3 variant K326_09D/GpL16-k0 (antibody, human IgG1, kappa)
heavy: not shown
light: B1 light
notes: also called Ho Ab K326_09D
B5: GpH7-B3 variant L235_20W/GpL16-k0 (antibody, human IgG1, kappa)
heavy: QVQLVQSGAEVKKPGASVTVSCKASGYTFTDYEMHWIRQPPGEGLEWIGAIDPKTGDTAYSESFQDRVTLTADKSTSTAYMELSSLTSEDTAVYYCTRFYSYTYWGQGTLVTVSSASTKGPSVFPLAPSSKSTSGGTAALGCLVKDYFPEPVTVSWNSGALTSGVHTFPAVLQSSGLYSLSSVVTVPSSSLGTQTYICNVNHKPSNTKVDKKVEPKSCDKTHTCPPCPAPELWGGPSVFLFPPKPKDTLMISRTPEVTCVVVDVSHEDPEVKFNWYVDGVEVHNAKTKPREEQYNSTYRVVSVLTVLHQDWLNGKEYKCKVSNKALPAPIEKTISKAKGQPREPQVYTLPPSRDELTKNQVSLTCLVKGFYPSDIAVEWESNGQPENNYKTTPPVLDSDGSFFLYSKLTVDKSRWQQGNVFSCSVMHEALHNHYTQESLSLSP
light: B1 light
notes: also called Ho Ab L235_20W
B6: GpH7-B3 variant L328_14T/GpL16-k0 (antibody, human IgG1, kappa)
heavy: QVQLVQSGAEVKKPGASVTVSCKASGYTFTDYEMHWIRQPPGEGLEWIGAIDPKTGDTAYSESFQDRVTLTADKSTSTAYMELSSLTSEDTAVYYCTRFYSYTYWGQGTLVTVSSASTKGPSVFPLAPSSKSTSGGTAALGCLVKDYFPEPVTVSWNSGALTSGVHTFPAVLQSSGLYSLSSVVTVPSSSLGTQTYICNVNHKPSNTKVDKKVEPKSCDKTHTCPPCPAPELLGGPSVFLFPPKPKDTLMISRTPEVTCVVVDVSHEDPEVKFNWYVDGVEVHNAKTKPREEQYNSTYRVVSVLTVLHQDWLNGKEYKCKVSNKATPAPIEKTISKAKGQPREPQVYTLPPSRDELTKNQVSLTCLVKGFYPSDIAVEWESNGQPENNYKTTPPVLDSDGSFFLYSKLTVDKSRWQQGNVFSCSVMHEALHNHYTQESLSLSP
light: B1 light
notes: also called Ho Ab L328_14T
B7: GpH7-A5/GpH7-B3 variant I332_06M/GpL16-k0 (antibody, human IgG1, kappa)
heavy 1: not shown
heavy 2: not shown
light: B1 light
notes: also called He Ab I332_06M
B8: GpH7-B3 variant K326_10E/GpL16-k0 (antibody, human IgG1, kappa)
heavy: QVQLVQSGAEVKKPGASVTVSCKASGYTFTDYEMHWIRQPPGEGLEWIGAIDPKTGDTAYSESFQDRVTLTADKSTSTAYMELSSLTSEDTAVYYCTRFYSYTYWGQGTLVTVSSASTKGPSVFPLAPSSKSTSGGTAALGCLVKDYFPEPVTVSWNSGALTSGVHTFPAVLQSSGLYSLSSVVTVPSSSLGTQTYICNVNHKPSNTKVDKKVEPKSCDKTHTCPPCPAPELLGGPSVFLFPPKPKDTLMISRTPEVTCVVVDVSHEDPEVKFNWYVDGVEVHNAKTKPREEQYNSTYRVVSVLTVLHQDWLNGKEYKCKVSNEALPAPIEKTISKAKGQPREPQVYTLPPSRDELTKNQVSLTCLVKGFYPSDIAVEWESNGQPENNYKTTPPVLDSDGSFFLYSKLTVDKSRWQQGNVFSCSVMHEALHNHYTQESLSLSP
light: B1 light
notes: also called Ho Ab K326_10E
B9: GpH7-A5/GpH7-B3 variant G236_07I/GpL16-k0 (antibody, human IgG1, kappa)
heavy 1: not shown
heavy 2: not shown
light: B1 light
notes: also called He Ab G236_07I
B10: GpH7-B3 variant S337_09D/GpL16-k0 (antibody, human IgG1, kappa)
heavy: not shown
light: B1 light
notes: also called Ho Ab S337_09D
B11: GpH7-A5/GpH7-B3 variant I332_10E/GpL16-k0 (antibody, human IgG1, kappa)
heavy 1: not shown
heavy 2: not shown
light: B1 light
notes: also called He Ab I332_10E
B12: GpH7-B3 variant K334_14T/GpL16-k0 (antibody, human IgG1, kappa)
heavy: not shown
light: B1 light
notes: also called Ho Ab K334_14T
B13: GpH7-B3 variant T335_10E/GpL16-k0 (antibody, human IgG1, kappa)
heavy: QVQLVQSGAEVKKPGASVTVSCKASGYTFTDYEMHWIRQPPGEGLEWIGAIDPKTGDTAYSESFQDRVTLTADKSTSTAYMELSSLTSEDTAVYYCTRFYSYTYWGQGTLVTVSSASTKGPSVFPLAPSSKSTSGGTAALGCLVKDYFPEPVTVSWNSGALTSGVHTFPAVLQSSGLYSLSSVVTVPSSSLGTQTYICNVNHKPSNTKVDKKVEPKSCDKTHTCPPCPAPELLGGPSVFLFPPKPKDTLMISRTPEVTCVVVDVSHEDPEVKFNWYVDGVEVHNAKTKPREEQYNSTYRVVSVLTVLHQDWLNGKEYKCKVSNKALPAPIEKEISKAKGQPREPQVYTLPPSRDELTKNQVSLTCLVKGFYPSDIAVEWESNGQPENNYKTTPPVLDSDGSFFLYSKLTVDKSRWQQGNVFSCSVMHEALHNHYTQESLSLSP
light: B1 light
notes: also called Ho Ab T335_10E
B14: GpH7-A5/GpH7-B3 variant G236_10E/GpL16-k0 (antibody, human IgG1, kappa)
heavy 1: not shown
heavy 2: not shown
light: B1 light
notes: also called He Ab G236_10E
B15: GpH7-B3 variant S324_02A/GpL16-k0 (antibody, human IgG1, kappa)
heavy: not shown
light: B1 light
notes: also called Ho Ab S324_02A
B16: GpH7-A5/GpH7-B3 variant H268_13S/GpL16-k0 (antibody, human IgG1, kappa)
heavy 1: not shown
heavy 2: not shown
light: B1 light
notes: also called He Ab H268_13S
B17: GpH7-A5/GpH7-B3 variant I332_14T/GpL16-k0 (antibody, human IgG1, kappa)
heavy 1: not shown
heavy 2: not shown
light: B1 light
notes: also called He Ab I332_14T
B18: GpH7-B3 variant T335_01G/GpL16-k0 (antibody, human IgG1, kappa)
heavy: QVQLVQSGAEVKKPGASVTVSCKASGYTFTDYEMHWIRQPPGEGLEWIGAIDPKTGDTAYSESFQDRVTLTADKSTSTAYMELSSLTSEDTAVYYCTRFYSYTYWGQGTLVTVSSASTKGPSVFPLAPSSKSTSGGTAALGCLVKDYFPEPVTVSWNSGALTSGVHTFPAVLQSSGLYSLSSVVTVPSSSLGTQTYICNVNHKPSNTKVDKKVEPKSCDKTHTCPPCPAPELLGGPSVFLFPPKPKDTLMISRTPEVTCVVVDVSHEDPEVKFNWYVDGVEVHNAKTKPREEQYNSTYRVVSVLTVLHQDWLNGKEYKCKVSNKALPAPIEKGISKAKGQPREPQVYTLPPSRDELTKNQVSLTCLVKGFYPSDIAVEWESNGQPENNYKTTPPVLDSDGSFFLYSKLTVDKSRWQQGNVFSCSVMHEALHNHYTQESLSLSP
light: B1 light
notes: also called Ho Ab T335_01G
B19: GpH7-B3 variant L328_06M/GpL16-k0 (antibody, human IgG1, kappa)
heavy: not shown
light: B1 light
notes: also called Ho Ab L328_06M
B20: GpH7-B3 variant K334_07I/GpL16-k0 (antibody, human IgG1, kappa)
heavy: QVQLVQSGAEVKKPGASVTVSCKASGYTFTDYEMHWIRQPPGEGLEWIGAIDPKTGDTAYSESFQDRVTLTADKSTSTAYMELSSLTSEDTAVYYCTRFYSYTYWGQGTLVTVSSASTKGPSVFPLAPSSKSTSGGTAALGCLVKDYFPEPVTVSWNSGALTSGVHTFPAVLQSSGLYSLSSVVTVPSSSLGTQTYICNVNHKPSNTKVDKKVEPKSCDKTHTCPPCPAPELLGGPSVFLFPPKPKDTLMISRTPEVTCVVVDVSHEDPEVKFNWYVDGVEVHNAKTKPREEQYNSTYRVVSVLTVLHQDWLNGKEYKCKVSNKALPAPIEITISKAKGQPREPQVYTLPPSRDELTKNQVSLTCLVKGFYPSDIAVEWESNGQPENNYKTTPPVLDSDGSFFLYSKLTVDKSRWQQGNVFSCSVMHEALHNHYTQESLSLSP
light: B1 light
notes: also called Ho Ab K334_07I
B21: GpH7-A5/GpH7-B3 variant I332_03V/GpL16-k0 (antibody, human IgG1, kappa)
heavy 1: not shown
heavy 2: not shown
light: B1 light
notes: also called He Ab I332_03V
B22: GpH7-B3 variant S324_10E/GpL16-k0 (antibody, human IgG1, kappa)
heavy: not shown
light: B1 light
notes: also called Ho Ab S324_10E
B23: GpH7-B3 variant S324_20W/GpL16-k0 (antibody, human IgG1, kappa)
heavy: not shown
light: B1 light
notes: also called Ho Ab S324_20W
B24: GpH7-B3 variant K334_16H/GpL16-k0 (antibody, human IgG1, kappa)
heavy: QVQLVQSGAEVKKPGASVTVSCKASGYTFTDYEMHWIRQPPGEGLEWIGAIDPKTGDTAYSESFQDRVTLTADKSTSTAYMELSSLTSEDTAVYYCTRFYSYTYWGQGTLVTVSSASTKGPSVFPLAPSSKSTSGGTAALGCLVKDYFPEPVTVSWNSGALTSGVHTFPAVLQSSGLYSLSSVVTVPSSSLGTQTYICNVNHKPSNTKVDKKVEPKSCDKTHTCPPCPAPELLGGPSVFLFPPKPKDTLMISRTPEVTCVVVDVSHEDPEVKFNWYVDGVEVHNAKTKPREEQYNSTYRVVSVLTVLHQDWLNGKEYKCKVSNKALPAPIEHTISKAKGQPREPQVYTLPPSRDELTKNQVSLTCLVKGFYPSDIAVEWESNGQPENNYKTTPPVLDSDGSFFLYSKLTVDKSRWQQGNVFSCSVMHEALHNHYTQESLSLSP
light: B1 light
notes: also called Ho Ab K334_16H
B25: GpH7-B3 variant T335_13S/GpL16-k0 (antibody, human IgG1, kappa)
heavy: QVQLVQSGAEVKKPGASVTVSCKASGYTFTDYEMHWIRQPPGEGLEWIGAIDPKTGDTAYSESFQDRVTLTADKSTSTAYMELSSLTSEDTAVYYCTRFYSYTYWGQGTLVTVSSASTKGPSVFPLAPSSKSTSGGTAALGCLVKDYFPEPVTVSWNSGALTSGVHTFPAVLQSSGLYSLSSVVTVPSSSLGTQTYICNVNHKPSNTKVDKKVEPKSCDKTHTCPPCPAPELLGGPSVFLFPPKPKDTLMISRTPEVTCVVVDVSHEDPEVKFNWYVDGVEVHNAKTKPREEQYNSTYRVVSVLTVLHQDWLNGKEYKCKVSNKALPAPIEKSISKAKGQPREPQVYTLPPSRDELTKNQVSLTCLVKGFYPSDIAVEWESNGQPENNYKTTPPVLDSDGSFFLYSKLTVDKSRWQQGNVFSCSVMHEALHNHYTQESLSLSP
light: B1 light
notes: also called Ho Ab T335_13S
B26: GpH7-B3 variant Q295_07I/GpL16-k0 (antibody, human IgG1, kappa)
heavy: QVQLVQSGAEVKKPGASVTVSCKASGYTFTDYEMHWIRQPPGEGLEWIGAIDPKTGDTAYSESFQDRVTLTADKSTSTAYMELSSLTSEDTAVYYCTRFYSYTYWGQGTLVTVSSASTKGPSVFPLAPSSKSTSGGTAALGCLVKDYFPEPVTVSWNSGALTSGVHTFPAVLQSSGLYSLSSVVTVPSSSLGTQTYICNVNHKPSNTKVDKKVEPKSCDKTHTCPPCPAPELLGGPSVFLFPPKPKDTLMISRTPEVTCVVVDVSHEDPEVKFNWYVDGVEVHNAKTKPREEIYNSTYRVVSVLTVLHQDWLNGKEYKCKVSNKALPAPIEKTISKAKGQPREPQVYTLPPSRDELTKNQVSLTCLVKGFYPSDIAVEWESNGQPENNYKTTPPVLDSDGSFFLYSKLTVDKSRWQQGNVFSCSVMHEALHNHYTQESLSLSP
light: B1 light
notes: also called Ho Ab Q295_07I
B27: GpH7-A5/GpH7-B3 variant H268_18N/GpL16-k0 (antibody, human IgG1, kappa)
heavy 1: not shown
heavy 2: not shown
light: B1 light
notes: also called He Ab H268_18N
B28: GpH7-A5/GpH7-B3 variant I332_04F/GpL16-k0 (antibody, human IgG1, kappa)
heavy 1: not shown
heavy 2: not shown
light: B1 light
notes: also called He Ab I332_04F

The experiment concerns the target T1, FcγRIIa H. Description: SPR Biacore, relative binding.
Regarding B1, the Ho/Con_2aH was 101 % of GpH7-B3/GpL16-k0 (=100).
In the case of B2, the Ho/Con_2aH is 123 % of GpH7-B3/GpL16-k0 (=100).
For B3, the He/Con_2aH is 119 % of GpH7-A5/GpH7-B3/GpL16-k0 (=100).
As for B4, the Ho/Con_2aH is 113 % of GpH7-B3/GpL16-k0 (=100).
On the same count and under the same terms, the result for B5 reads 112 % of GpH7-B3/GpL16-k0 (=100).
Still for that read-out and setting: with B6 the figure was 110 % of GpH7-B3/GpL16-k0 (=100).
As for B7, the He/Con_2aH was 110 % of GpH7-A5/GpH7-B3/GpL16-k0 (=100).
With B8, the Ho/Con_2aH is 101 % of GpH7-B3/GpL16-k0 (=100).
For the molecule B9, the He/Con_2aH was 115 % of GpH7-A5/GpH7-B3/GpL16-k0 (=100).
Regarding B10, the Ho/Con_2aH is 107 % of GpH7-B3/GpL16-k0 (=100).
Take B11: the He/Con_2aH is 108 % of GpH7-A5/GpH7-B3/GpL16-k0 (=100).
Regarding B12, the Ho/Con_2aH was 105 % of GpH7-B3/GpL16-k0 (=100).
Still for that read-out and setting: the result for B13 reads 105 % of GpH7-B3/GpL16-k0 (=100).
Regarding B14, the He/Con_2aH was 111 % of GpH7-A5/GpH7-B3/GpL16-k0 (=100).
For B15, the Ho/Con_2aH is 102 % of GpH7-B3/GpL16-k0 (=100).
As for B16, the He/Con_2aH was 112 % of GpH7-A5/GpH7-B3/GpL16-k0 (=100).
With B17, the He/Con_2aH was 115 % of GpH7-A5/GpH7-B3/GpL16-k0 (=100).
Consider B18, for which the Ho/Con_2aH was 101 % of GpH7-B3/GpL16-k0 (=100).
For the molecule B19, the Ho/Con_2aH was 100 % of GpH7-B3/GpL16-k0 (=100).
Regarding B20, the Ho/Con_2aH is 116 % of GpH7-B3/GpL16-k0 (=100).
Consider B21, for which the He/Con_2aH was 105 % of GpH7-A5/GpH7-B3/GpL16-k0 (=100).
For B22, the Ho/Con_2aH is 104 % of GpH7-B3/GpL16-k0 (=100).
Consider B23, for which the Ho/Con_2aH was 108 % of GpH7-B3/GpL16-k0 (=100).
For the molecule B24, the Ho/Con_2aH is 101 % of GpH7-B3/GpL16-k0 (=100).
Consider B25, for which the Ho/Con_2aH is 101 % of GpH7-B3/GpL16-k0 (=100).
Same read-out and setting: with B26 the figure was 108 % of GpH7-B3/GpL16-k0 (=100).
Consider B27, for which the He/Con_2aH is 112 % of GpH7-A5/GpH7-B3/GpL16-k0 (=100).
For B28, the He/Con_2aH is 104 % of GpH7-A5/GpH7-B3/GpL16-k0 (=100).

The record behind these values is patent US20180155451A1 (published 2018).
